{"source": "the DeepSol protein solubility set"}
{"assay": "soluble on expression in E. coli; label from the status in PepcDB or PDB records"}
{"sequence": "MGSDKIHHHHHHMNDTPPPPSCARCSAVWQKSGTTNCWSNPDNRPGRPADCPSSAHGDIVASSFDEYRGESDDARLARVAARVEGLCYRKMTGSDAVVARWTRVEDTIALAKLMGWSKVGIATCIGLLDETRQLATILEAQGLEPVSVCCKAGSIDKLELGLDESDKVRPGTFEPACNPVAQAEVLNRCGTHMNIIVGLCVGHDMLFTKHSAAPVTTLVCKDRVTGHNPVAVLYGQNFYFKRLQKMPIDIPEGEE", "soluble on expression in E. coli": "not soluble"}
{"sequence": "MERTVKLRVKVDYKTYSALKEVEKEYREVLEEAINYGLSNKTTSFTRIKAGVYKTEREKHKDLPSHYIYTACEDASERLDSFEKLKRRGRSYTEKPSVRRVTIHLDDHLWKFNLDRISISTKRSRILISPTFPKIFWRYYNKGWRIASEARFKLLKGNVVEFYVIFKRDEPKPYEPKGFISVDLNENSVSVLVDGKPMLLETNTKRITLGYEYRRKAITTGKSTKDREVRRKLKRLRERNKKVDIRRKLAKLIVKEAFESRSVIVLEDLPRRTPEHMIKDVKDSQLRLRIYRAAFSSMKNAIIEKAREFGVPVVLVNPSHTSTVCPVHGTKIVYQLDGGDAPRVGVCEKGKEKWHRDVVALYNLARRAGDVSPVPLGSKESHDPPKRWLRAKSLHSIMNDHKMIEMKVLEHHHHHH", "soluble on expression in E. coli": "not soluble"}
{"sequence": "STAGKVIKCKAAVLWEEKKPFSIEEVEVAPPKAHEVRIKMVATGICRSDDHVVSGTLVTPLPVIAGHEAAGIVESIGEGVTTVRPGDKVIPLWTPQCGKCRVCKHPEGNFCLKNDLSMPRGTMQDGTSRFTCRGKPIHHFLGTSTFSQYTVVDEISVAKIDAASPLEKVCLIGCGFSTGYGSAVKVAKVTQGSTCAVFGLGGAGLSVIMGCKAAGAARIIGVDINKDKFAKAKEVGATECVNPQDYKKPIQEVLTEMSNGGVDFSFEVIGRLDTMVTALSCCQEAYGVSVIVGVPPDSQNLSMNPMLLLSGRTWKGAIFGGFKSKDSVPKLVADFMAKKFALDPLITHVLPFEKINEGFDLLRSGESIRTILTF", "soluble on expression in E. coli": "soluble"}
{"sequence": "MGSDKIHHHHHHMSILNVEHLSHGFGDRAIFEDVSFRLLKGEHIGLVGANGEGKSTFMNIITGRLMPDEGKIEWAKKVRVGYLDQHTALEKGMTIGSVLSSAFDFLYDMENEMNDIYARLGDVDEDEMNKLMEEAGTIQDMLTMHDFYMIDAKVEEVARALGLLDLGLDKDVTDLSGGQRTKVLMGKLLLEKPDILLLDEPTNYLDVEHIEWLKRYLNDYENAFILISHDIPFLNSVVNLIYHMDNKKLDRYVGDYDKFMEVYEMKKAQLEAAYNKQQQEIKELKDFVARNKARVATRNMAMSRQKKLDKMDVIELAAEKPKPEFNFKTARTPGRYIFQTNGLVIGYDDPLSSALDLEMERGQKIVLTGANGIGKTTLLKSILGLIKPLSGSVTLGDYLEIGYFEQEMDQSVTTTCIEEIWNEFPAFSQYEVRSALAKCGLTTKHIESQVRVLSGGEQAKVRLCKLINRETNILLLDEPTNHLDVDAKDELKRALKEYKGSILMVCHEPDFYDGLATDVWDCSKWTTRL", "soluble on expression in E. coli": "not soluble"}
{"sequence": "MEITRLLTLYYEATPDPQNPLEGVRFGTSGHRGSSLKATFTEAHVLAIAQAIAELRPSFGATGPLFLAKDTHALSEPAWATALSVFAAHGIEVRVEADGDYTPTPLVSLAILEHNAHHEAKADGVLLTPSHNPPEDGGFKYNPPTGGPANARITRAIEERANALLQEGLKGVKRLPLREALARAKPFDYAGLYVEKVAEAVDLEAIRASGLRIGVDPLGGASLRVWERLAESHGLPLEVVNPTLDPTFRFMPKDHDGKIRMDCSSPYAMAGLLALKDRFDLAIGNDPDADRHGIVTPRGLMNPNHYLAAALHHLYTTRSWPGAKVGKTAVTSALLDRVAQALGREVYETPVGFKHFVAGLLEGWLGFAGEESAGASFLRFDGRPFSTDKDGILMGLLAAELMAKRGQAPDALYEALAEKLGRPYYARKDLPVSPEAKARLARLSAKEVHPSTLAGEPVLQVLDRATGNGEPLGGIKVVAANAWFAVRPSGTEDVAKVYAESFLGEAHLERVLEEATALLHKALA", "soluble on expression in E. coli": "soluble"}
{"sequence": "MGSDKIHHHHHHAEPVADPMEEEGISVVRYDKLLDEYVRFNSFSALQKMNLEYALPTKLLIEDVLAIGQVSDDHIFQRLKTFYSDTTLVRLIEDVEAKYPELESVEKNLTKGFGKLQKEIPDIMIPMIYTQISAFNESIVLSDSVLGISLDKYMGEDYPLYKRFYYNYQRRTMRPDRIVPDCLVFYLMSQYPFPMDYSRTLLDVMMHYGKINYVVQHLLDYSSSEEALGYSDLEREWCKENQQQMWRYILEQDHLHATDPMVVRQYTRPAPFTNTLGENAPSMVGTWIGTKIITSYMKHHKKTTLRQLLEMSDYERMFTESRFNP", "soluble on expression in E. coli": "not soluble"}
{"sequence": "MLEAEVVALKDLIEVAGAVVSTLDLDTVLRHILTSAMRFAETPAGSIALYDGYRNDLTLHAHEGLTPEFVKTERWSVQPGGLTEQVLTRGEILFVNDTADTSFFHNPTALNEGIRSLICVPLMMQNRIVGILYLDDFVPRDFDKERMKLLSVLASFAAMAIDNAQLHARTR", "soluble on expression in E. coli": "not soluble"}
{"sequence": "MLIRSAKPEDAEFIGSIRVAAWQAAYRGFMPDTYLASLDPGANLDELRAALRAENPPFTLRIAETEGQPIAFSILGKPRYNADQSIVELWALNVHPTHWRKGAGQQLVRQVLLDAKEQKFVSVELWCIQGNLAAQRLYEICGFVPNSQVRTTSSLTGYPLHELAYTYAL", "soluble on expression in E. coli": "not soluble"}
{"sequence": "GPGSMTEYLKDIGRTKPGDPMPPINLGPYDNPLLWNMLDPFGADRGHQRRPMSVSRDFMELHNVPIIFRDQCVHRWVPFHRCLKNLKPVTWGTANCHEFEEAWMICRAYETYRNQLLKTKFMELTKDYTAEDKKFFPSLLHLSVPTYMNSFYWTMAASQRLSGWDERDPANPMTWREPNRALMRAEFSPTNWEQGNLTNATGHKLITDDLVFDMVPGFPLPEDKRPETLY", "soluble on expression in E. coli": "not soluble"}
{"sequence": "MTQTQPVTPTPPASFQTQHDPRTRLGATPLPGGAGTRFRLWTSTARTVAVRVNGTEHVMTSLGGGIYELELPVGPGARYLFVLDGVPTPDPYARFLPDGVHGEAEVVDFGTFDWTDADWHGIKLADCVFYEVHVGTFTPEGTYRAAAEKLPYLKELGVTAIQVMPLAAFDGQRGWGYDGAAFYAPYAPYGRPEDLMALVDAAHRLGLGVFLDVVYNHFGPSGNYLSSYAPSYFTDRFSSAWGMGLDYAEPHMRRYVTGNARMWLRDYHFDGLRLDATPYMTDDSETHILTELAQEIHELGGTHLLLAEDHRNLPDLVTVNHLDGIWTDDFHHETRVTLTGEQEGYYAGYRGGAEALAYTIRRGWRYEGQFWAVKGEEHERGHPSDALEAPNFVYCIQNHDQIGNRPLGERLHQSDGVTLHEYRGAAALLLTLPMTPLLFQGQEWAASTPFQFFSDHAGELGQAVSEGRKKEFGGFSGFSGEDVPDPQAEQTFLNSKLNWAEREGGEHARTLRLYRDLLRLRREDPVLHNRQRENLTTGHDGDVLWVRTVTGAGERVLLWNLGQDTRAVAEVKLPFTVPRRLLLHTEGREDLTLGAGEAVLVG", "soluble on expression in E. coli": "soluble"}
{"sequence": "MAQMTMIQAITDALRVEMKNDPNVLVFGEDVGVNGGVFRATEGLQAEFGEDRVMDTPLAESGIGGLAVGLALEGFRPVPEIQFFGFVYEVMDSISGQLARMRYRSGGRWTAPVTVRSPFGGGVHTPELHADSLEGLVAQQPGLKVVIPSTPYDAKGLLISAIRDNDPVIYLEHMKLYRSFRQDVPEGEYTIDLGKADIKREGTDVSVIAYGAMVHAALKAAEELEKEGISLEVVDLRTVQPLDIETIIASVEKTGRVVVVQEAQKQAGIAANVVAEINDRAILNLEAPVVRVAAADTVFPFSQAESVWLPNHKDIVEAVNKVMNF", "soluble on expression in E. coli": "not soluble"}
{"sequence": "MPISIQQISYIHPDKEVLFSDLNFAISKGQKLGLVGNNGCGKSTLLQIIAGQLAPSSGVIVRPDDLYYIPQHFGQYDSLTIAQALQIDHKQKALHAILAGDASIENFSILNDDWNIEERSVAALDSWGLGQFPLSYPMNLLSGGEKTRVFLAGMDIHNPSVILMDEPTNHLDSSGRQRLYDWVEKWRSTLLVVSHDRTLLNLLPEICELEKHQISYYGGNYEFYKEQKTLMQEALQQRIEEKEKALRTARKVARETAERRDKQNVRGEKRNLKKGVPRIVLNGLQSKSEKSTAKLTGAHQEKAEKLTDERNQLRSSLSPTAALKTDFNNSGLHTGKILVTAEEINFGYHPDQPQLWQAPLSFQLKSGDRLRIEGGNGSGKTTLLKIITGQLQPLKGTLIQANFTYVYLNQEYSIINDRNSILEQAYAFNGRNLPEHEIKIILNRYLFPASEWDKSCRKLSGGEKMRLAFCCLMISNNMPDMFILDEPTNNLDIQSIEIITATIKNYAGTVIAISHDNYFIQEIGVEQSIFLS", "soluble on expression in E. coli": "not soluble"}
{"sequence": "MKIDISDILKHSGASLRLDFSESIKINDFIAEDFDFAKPVTFKGTLVNAGGIIKLDGELWADYRAKCSRCLKDIESKMHIDVKENFVEEGSNKTDEEYYTYHGKFLELEKVMIDNIILNLPAKQVCDEACKGYCPKCGADLNNDECKCVNEDIDPRLEVFKNFFTDN", "soluble on expression in E. coli": "soluble"}
{"sequence": "MSKGMFSASQSGFSTIEVYDLGPLNKIDLSIAKAGLEDTGGTVTFSVEQSLLDSLNNADGTSYQLLPPECYTIENATYSVSPGGDRRVTGGSLVYDPHKIYNLCGFDELKYVLPLRVSSTGTPMNSDRTATLYGFIVKEAIVRLASTGGDFVVEGGTTTSPMNLDTEISFENEWDLTTSFATKGADYVDNYNSANSTYYIPLPSDFYTLPDVTIAKGKTTGGSAISLLGETLPPGNYLLPVSLGGLSGQGDASINIDKETVANYFVIKQGGPINRDHWTVTANTEEKTGEVSAAYPHNGQTISLIDGEINTFWHSKWQGGEVAPPYEIILDMGKENSVSQLGLIARQNALTSMNLEIYAGDDGETWNLIGKYFFDGSIKTEQMVPVKACDARWIRIYIPTLGSGSSVGHLAEIYVYGTDKLEHHHHHH", "soluble on expression in E. coli": "soluble"}
{"sequence": "MPAKPQLISPAGDWTSMRAALDAGADAVYFGAEGFNMRAASKGFSPGDFGGIARLCRSHGAKAYLALNSVIYDAELDEVDRTAAAAKAAGLDAVICWDLAVIEACRRHEMPIHLSTQASVSNINALRFYASLGARMIVLARELTLEQTAAITKCIAAEKLPVTVESFVHGAMCVAISGRCFLSQELFGRSANRGECVQPCRRSYRIADVEEGFELELGSNYVMSPKDLCALPFLDKLFDAGIGAFKIEGRNRSPEYVATTTAAYRKAIDFIAAHRNDKDFDEAYRSLTDRLQNDLVRVYNRGFSEGFFFGKPADAWTKHSGSAATETKSYVGVVRKYFPKAGVAEILVHAPSVDSGVRLSIQGPATGLVTVPDAELHLDGQLANRIEQGQIFTVRCDRVRKNDKVYVLLKN", "soluble on expression in E. coli": "not soluble"}
{"sequence": "AHHHHHHGSKFEELNEKIKKVYGKVRTIDDFHWHISDNLIHGIHKKSGLRLEIRIAESKEAADKIAQKKEPGNLMVIVVPGKETFYVNNGAFVLALKFLRSTIQDISDHIVWAGFKVVERDGALEQEDIYEYLGGRLIEHIKSGMVNGKDYIFWQFYKCEHCGKYVDIENLVRHMKTHGEDVKEWSEEKYEVLELSFEDKKVYNKFGKEVPLEEFVEETQDFIKEVFES", "soluble on expression in E. coli": "soluble"}
{"sequence": "SGGRRWNWVQSWPVWKYFKEYFPICLVKTQDLDPGHNYIFGFHPHGIFVPGAFGNFCTKYSDFKKLFPGFTSYLHVAKIWFCFPLFREYLMSNGPVSVSKESLSHVLSKDGGGNVSIIVLGGAKEALEAHPGTFTLCIRQRKGFVKMALTHGASLVPVFSFGENDLYKQINNPKGSWLRTIQDAMYDSMGVALPLIYARGIFQHYFGIMPYRKLIYTVVGRPIPVQQILNPTSEQIEELHQTYLEELKKLFNEHKGKYGIPEHETLVFK", "soluble on expression in E. coli": "soluble"}
